According to patent US20090312403A1:

Target: mouse B6 class I antigens (H-2^b: D^b or K^b) on RMA-S cells (mouse)
Assay: binding of 9mer peptide to mouse B6 (H-2^b) class I antigens, RMA-S cell assay

QARMFPNAP [WT1 peptide P124-132 (…)] and ASSGQARMF [WT1 peptide P120-128 (…)] are the same in Binding Affinity to Mouse MHC Class I: 1% for the first, 1% for the second.

First: QASSGQARM [WT1 peptide P119-127 (…)]
Second: FPNAPYLPS [WT1 peptide P128-136 (…)]
The Binding Affinity to Mouse MHC Class I of the first is higher: 2% for the first, 1% for the second.

First: MFPNAPYLP [WT1 peptide P127-135 (…)]
Second: PNAPYLPSC [WT1 peptide P129-137 (…)]
The Binding Affinity to Mouse MHC Class I of the first is higher: 2% for the first, 1% for the second.

First: NAPYLPSCL [WT1 peptide P130-138 (…)]
Second: APYLPSCLE [WT1 peptide P131-139 (…)]
The Binding Affinity to Mouse MHC Class I of the first is higher: 79% for the first, 1% for the second.

ARMFPNAPY [WT1 peptide P125-133 (…)] and SSGQARMFP [WT1 peptide P121-129 (…)] are the same in Binding Affinity to Mouse MHC Class I: 1% for the first, 1% for the second.

SQASSGQAR [WT1 peptide P118-126 (…)] and PSQASSGQA [WT1 peptide P117-125 (…)] are the same in Binding Affinity to Mouse MHC Class I: 2% for the first, 2% for the second.

Target: mouse B6 class I antigens (H-2^b: D^b or K^b) on RMA-S cells (mouse)
Assay: RMA-S cells incubated with peptide (25 ug/ml), flow cytometry with FITC anti-D^b or anti-K^b

Compared with YSSDNLYQM [WT1 peptide p221-229 (…)], ALLPAVPSL [WT1 peptide human p10-18 (…)] is higher in Binding Affinity to Mouse MHC Class I (% increase of D^b or K^b on RMA-S cells): 0.8% for the first, 2.2% for the second.

Going from NQMNLGATL [WT1 peptide p239-247 (…)] to NLYQMTSQL [WT1 peptide p225-233 (…)], the Binding Affinity to Mouse MHC Class I (% increase of D^b or K^b on RMA-S cells) rises from 1% to 5.8%.

First: SCLESQPAI [WT1 peptide human p136-144 (…)]
Second: QMTSQLECM [WT1 peptide p228-236 (…)]
The Binding Affinity to Mouse MHC Class I (% increase of D^b or K^b on RMA-S cells) of the first is higher: 52% for the first, 1.2% for the second.

Going from CMTWNQMNL [WT1 peptide p235-243 (…)] to GCNKRYFKL [WT1 peptide p329-337 (…)], the Binding Affinity to Mouse MHC Class I (% increase of D^b or K^b on RMA-S cells) falls from 33.6% to 1.2%.
